According to US20260043020A1, “BINDING MEMBERS WITH ALTERED DIVERSITY SCAFFOLD DOMAINS” (priority 2016, published 2026):

T1: trypsin (Bos taurus, UniProt P00760)
T1 construct: gene PRSS1
T1 sequence (P00760 24-246): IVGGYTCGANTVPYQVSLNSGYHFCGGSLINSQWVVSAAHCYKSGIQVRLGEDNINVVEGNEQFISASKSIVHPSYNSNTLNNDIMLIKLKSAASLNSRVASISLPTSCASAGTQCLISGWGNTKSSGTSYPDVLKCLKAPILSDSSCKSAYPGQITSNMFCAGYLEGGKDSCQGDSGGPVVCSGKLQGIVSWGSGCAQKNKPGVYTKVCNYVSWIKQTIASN

B1: KB_C09: KnotBody, EETI-II in VL CDR2; VL SEQ ID NO: 120 (antibody, V domains shown)
VL: QSVLTQPPSVSEAPRQRVTITCSGSSSNIGNNAVNWYQQLPGKAPKLLIYAAGRCPRILMRCKQDSDCLAGCVCGPNGFCGGGSGVPDRFSGSIDSSSNSASLTISGLRAEDEADYYCQSYDSSNHWVFGGGTKLTVLGQP
modifications: EETI-II in VL CDR2; CDR2_C_08
B2: G11: KnotBody with EET 5-3 framed EETI-II in VL CDR2; SEQ ID NO: 317 (protein)
chain: QSVLTQPPSVSEAPRQRVTITCSGSSSNIGNNAVNWYQQLPGKAPKLLIYAAGGCGPNGFCGSGSDGGVCPRILMRCKQDSDCLAGCGQSSGVSDRFSGSKSGTSATLDITGLQTGDEADYYCGTWDNSLSVGVFGGGTKVTVLGQP
modifications: G11 (27650)
B3: KB_B11: KnotBody, EETI-II in VL CDR1; VL SEQ ID NO: 86 (antibody, V domains shown)
VL: QSVLTQPPSVSEAPRQRVTITCGSRPCPRILMRCKQDSDCLAGCVCGPNGFCGSHNWYQQLPGSSPTTVIYEDNQRPSGVPDRFSGSIDRSSNSASLTISGLKTEDEADYYCQSYDSSNHRVVFGGGTKLTVLGQP
modifications: heavy chain missing; CDR1_F_02
B4: F07: KnotBody with EET 5-3 framed EETI-II in VL CDR2; SEQ ID NO: 314 (protein)
chain: QSVLTQPPSVSEAPRQRVTITCSGSSSNIGNNAVNWYQQLPGKAPKLLIYAAGGCGPNGFCGSGSDGGVCPRILMRCKQDSDCLAGCGGQSGVPDRFSGSKSGTSASLAISRLQSEDEADYYCAAWDDSLNAYVFGTGTKVTVLGQP
modifications: F07 (72824)
B5: F01: KnotBody with EET 5-3 framed EETI-II in kappa VL CDR2; SEQ ID NO: 312 (protein)
chain: DIQMTQSPSSLSASVGDRVTITCRASQSISSYLNWYQQKPGKAPKLLIDAAGECGPNGFCGSGSDGGVCPRINMRCKQDSDCLAGCGRDSGVPSRFSGSGSGTDFTLTISSLQPEDFATYYCQQSYSTPWTFGQGTKVEIKRT
modifications: F01 (101798)
B6: KB_C10: KnotBody, EETI-II in VL CDR2; VL SEQ ID NO: 123 (antibody, V domains shown)
VL: QSVLTQPPSVSEAPRQRVTITCSGSSSNIGNNAVNWYQQLPGKAPKLLIYAAGPCPRILMRCKQDSDCLAGCVCGPNGFCGADSGVSDRFSGSKSGTSASLAITGLQAEDEGDYYCAAWDDSLNGLVFGGGTKVTVLGQP
modifications: EETI-II in VL CDR2; CDR2_E_05

Experiments:
trypsin [1] = biological target: T1, trypsin; experiment: Monoclonal phage TRF binding assay on trypsin (KnotBody clones and GlyAla mutants); conditions: for % reduction in binding signal: GlyAla mutant (EETI-II Pro3 to Gly, Arg4 to Ala) of the clone versus the clone, monoclonal phage, trypsin on streptavidin plates; for Tryspin binding signal (FU): monoclonal phage supernatant of round-2 clones, biotinylated trypsin on neutravidin plates
Method: Phage display technology facilitates isolation of binders to any given target from large combinatorial repertoires based on proteins and peptides that can be presented on the surface of filamentous phage^105. In order to isolate functional knottin-antibody fusions from the KnotBody libraries multiple rounds of phage display selections on trypsin (cognate antigen for the EETI-II donor) were carried out. Phage particles were prepared by rescuing KnotBody libraries using trypsin cleavable helper phage^102,106Two rounds of phage display selections were performed on 10 μg/ml biotinylated trypsin immobilised on Streptavidin (for Round-1) or Neutravidin (for round-2) coated Maxisorp™ immunotubes (Thermo Scientific, Cat No. 444202). In both rounds of selection, phage libraries were pre-incubated with streptavidin coated paramagnetic beads (Thermo Fisher Scientific, Cat. No. 11205D). These beads were removed prior to the addition the phage to the antigen tubes to limit the streptavidin binders entering the selection. Polyclonal phage preparations from round-2 selection outputs were analysed for trypsin binding using a time resolved fluorescence (TRF) binding assay. In this assay, polyclonal phage binding to biotinylated trypsin immobilised on neutravidin (Thermo Fisher Scientific, Cat. No 31000) coated Maxisorp™ plates (Thermo Scientific, Cat. No. 437111) was detected using a mouse anti-M13 antibody (GE Healthcare, Cat. No. 27-9420-01) followed by europium conjugated anti-mouse antibody (Perkin Elmer, Cat. No. AD0124).
In order to identify monoclonal KnotBodies with desired binding characteristics, 94 individual clones derived from 2 rounds of selection using EETI-II CDR1 or CDR2 libraries were picked into 96 well culture plates and phage were prepared from each clone. Methods for screening by monoclonal phage ELISA are known in the art^107. […] Clones with >3× binding signal above background were picked as positive clones and sequenced to identify unique clones. 14 and 42 unique binders were identified from EETI-II CDR1 and EETI-II CDR2 libraries respectively (Table 1). 18 binders from the EETI-II CDR2 library and 3 binders from the EETI-II-CDR1 library were chosen for further characterisation based on their VL and linker sequence diversity. These binders were assigned new clone identification numbers (Table 2).
The trypsin binding capability of EETI-II is attributed to proline (Pro3) and arginine (Arg4) residues present in its loop1 (GCPRILMRC; SEQ ID NO: 68). […] Monoclonal phage was prepared from the 21 selected clones and their mutant equivalents. […] Replacement of the trypsin-binding residues of EETI-II abolished the ability of all KnotBody clones to bind to trypsin (Table 3). In order to confirm that the loss of trypsin binding was not due to reduced expression or display of pIII fusion phage was prepared from 11 (randomly chosen) KnotBodies and their GlyAla variants were analysed on a western blot using an antibody which recognises the product of gene 3 (pIII) using an anti-pIII antibody (MoBiTec GmbH) (FIG. 6).

trypsin [2] = biological target: T1, trypsin; experiment: KnotBody Fab TRF binding assay on trypsin; conditions: Fab format
trypsin [3] = biological target: T1, trypsin; experiment: Monoclonal phage ELISA on trypsin, EET 5-3 framed KnotBodies; format: binding; conditions: value in brackets after the clone name
Excerpt: Following selection on trypsin, as described in example 3, positive clones were identified by monoclonal phage ELISA and their sequences determined. Examples of positive clones in CDR1 or CDR 2 of kappa and lambda light chains are shown in Table 29 with the linker sequences shown in lower case and the knottin donor in a 5-3 frame shown in italics. Also shown is the value of ELISA signal attained from monoclonal phage ELISA. The specificity of interaction was further confirmed by mutating the pair of Proline-Arginine residues involved in interaction with trypsin to alanine-alanine which diminished binding (as described in example 3).

Row | Molecule | % reduction in binding signal (trypsin [1]) | Tryspin binding signal (FU) (trypsin [1]) | TRF signal for 0.6 ug/mL Fab (trypsin [2]) | TRF signal for 2.4 ug/mL Fab (trypsin [2]) | TRF signal for 10 ug/mL Fab (trypsin [2]) | ELISA signal from monoclonal phage ELISA (trypsin [3])
1 | B1 | 100% | 89424 FU | 46788 | 204878 | 288988 | 
2 | B2 |  |  |  |  |  | G11 (27650)
3 | B3 | 100% | 10286 FU |  |  |  | 
4 | B4 |  |  |  |  |  | F07(72824)
5 | B5 |  |  |  |  |  | F01 (101798)
6 | B6 | 100% | 118631 FU | 41709 | 146488 | 238066 | 
